This note sets out measurements from patent publication US20230059181A1.

The test addresses Human CD64 (FcγRI), His-tagged (human) (UniProt P12314). Briefly: SPR single cycle kinetics, 1:1 model, His-CD64 captured, antibody as analyte.

Chain of Human CD64 (FcγRI), His-tagged (human) (P12314 16-288 limits assumed): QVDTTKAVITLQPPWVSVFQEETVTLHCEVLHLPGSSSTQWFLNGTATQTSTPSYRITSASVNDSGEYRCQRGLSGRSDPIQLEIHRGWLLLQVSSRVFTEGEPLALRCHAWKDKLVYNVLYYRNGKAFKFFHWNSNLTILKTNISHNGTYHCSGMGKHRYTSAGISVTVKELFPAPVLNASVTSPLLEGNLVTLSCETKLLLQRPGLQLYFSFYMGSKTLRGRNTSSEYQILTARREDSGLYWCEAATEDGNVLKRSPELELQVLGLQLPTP

For the substance Irrelevant IgG1 (antibody), the Kd (as a rule, a measure of binding affinity in units of concentration) is 2.61 nM; the koff (usually the rate constant with which the complex falls apart) was determined as 0.00083 s⁻¹; the association rate constant (kon) – broadly, the second-order rate constant of association – was found to be 319000 M⁻¹ s⁻¹.

Take Irrelevant IgG4 (antibody): the dissociation constant Kd came out at 5.97 nM, the off-rate constant (koff) was found to be 0.00249 s⁻¹ and the on-rate constant (kon) came to 417000 M⁻¹ s⁻¹.
